Assay results from the nanobody polyreactivity screen of Harvey et al. (2022).

Assay: yeast display, Sf9 membrane polyspecificity reagent, FACS + sequencing; frameworks hold sequencing errors
Summary of the method: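 Nanobodies came from a synthetic yeast display library in Saccharomyces cerevisiae BJ5465, induced with galactose for 36–48 hours and stained for 1 hour at 4 °C with 10% biotinylated, detergent-solubilized Sf9 membrane reagent. Cells were enriched on streptavidin microbeads and then FACS-sorted, with low and high (top ~1%) gates set on anti-HA fluorescence for expression and streptavidin fluorescence for reagent binding. Each polyreactivity label reflects the gate a clone came from. Genes were amplified by colony PCR, sequenced by MiSeq 2 × 250 and filtered by CDR length.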

Row | Sequence | polyreactivity (PSR sort gate)
1 | QVQLVESGGGLVQAGGSLRLSCAASGSIFAYYTMGWYRQAPGKERELVATISSGDITNYADSVKGRFTISRDNAKNTVYLQMNSLKPEDTAVYYCAAAELTSYYRTFIHQDYDYWGQGTQVTVSS | low polyreactivity
2 | QVQLVESGGGLGQAGGSLRLSCAASGIIFLDNAMGWYRQAPGKERELVAAYADSVKGRFTISRDNSNNTVYLQMNSLKPEDTAVYYCNVVLYKYSPTDSWITYDYWGQGTQVTVSS | low polyreactivity
3 | QVQLVESGGGLVQAGGSLRLSCAASGNTFGRYAMGWSRQAPGKEREFVAAIRWRGATTYYADSVKRRFTISRDNAKNPVDLQMNSMKPEDTAVYYCAAYYWGQGTGFDYWGQGTQVTVSS | high polyreactivity
4 | QVQLVESGGGLVQAGGSLRLSCAASGSIFKAYAMGWYRQAPGKERELVAAITWSAGSTYYADSVKGRFTISRDNAKNTVYLQMNSLKPEDTAVYYCAAEVRGSYYLTGYDYWGQGTQVTVSS | high polyreactivity
5 | QVQLVESGGGLVQAGGSLRLSCAASGIIFALNAMGWYRQAPGKERELVATIDSTSGSTYYADSVKGRFTISRDNAKNTVYLQMNSLKPEDTAVYYCAVVHAQSAPMDYWGQGTQVTVSS | low polyreactivity
6 | QVQLVESGGGLVQAGGSLRLICAASGFTFGYYAMGWYRQAPGKEREFVARISWSGDSTYYADSVKGRFTISRDNAKNTVYLQMTSLKPEDTAVYYCAARFTRQMYYWGQGTQVTVSS | high polyreactivity
7 | QVQLVESGGGLVQAGGSLRLSCAASGSTIYLYAMGWSRPAPGKERVLVAAIRGRGGRTYYADSVKGRFTISSDNAKNTVYLKMNSLKPEDTAVYYCNADVYAYYRATTRFDYWGQGTQVTVSS | high polyreactivity
8 | QVQLVESGGGVVQAGGSLRLSWAASGFIFAVYAMGWYRQSTGKERELVAAITFDGDTTYYADSVKGRFTISRDNANNTVYLQMKILKPDTAVYYCAAEYIKYLWYLHVDYWGQGTQVTVSS | low polyreactivity
9 | QVQLVESGGGLVQAGGSLRLSCAASGRTSLAYAMGWYRQAPGKERELVAAINTRGGSTYYADSVKGRFTISRDNAKNTVFLQINSLKPEDTAVYYCAKGPRLYFTRDKAHWKYDYWGQGTQVTVSS | low polyreactivity
10 | QVQLVESGGGLVQAGGSLRLSCAASGITFVWNAMGWYRQAPGKERELVATISRGGVRTYYADSVKGRFTISRDNAKNTVYLQMNSLKPEDTAVYYCAADGSYVHWEYGYWGQGTQGTVSS | low polyreactivity
11 | QDQLVETGGGLVQAGVSLRISCAASGSTFYYNAMGWYRQAPGKERELVAAITWSGDSTYYADSVKGRFTISRDNAKNTVYLQMNSLKPEDTAVYYCNAEYYDYFDYVSDYWGQGTQVTVSS | low polyreactivity
12 | QVQLVESGGGLVQAGGSLRLSCAASGFTFDQYTMGWYRQAPGKERELVAAISSSGGSTYYADSVKGRFTISRDNAKNTVYLQMNSLKPEDTAVFYCAARFLLTQRFSHDYWGQGTQVTVSS | low polyreactivity
13 | QVQLVESGGGLVQAGGSLRLSCAASGSIFWVYVLGWYRQAPGKERELVAAITNGGSTDYADSVKGRFTISRDNAKNTVYLQMNSLKPEDTAVYYCAKRSTIWGRILITYDYWGQGTQVTVSS | low polyreactivity
14 | QVQLVESGGGLVQAGGSLRLSCASSGRIFDQYAMGWYRQAPGKERELVAAISSDDGSTYYADSVKGRFTISRDNAKNTVYLQMNSLKPEDTAVYYCAADAWRYVDYDYWGQGTQVTVSS | low polyreactivity
15 | EEELVESGGGLVQAGGSLRLSCAASGRIFGPYAMGWYRQAPGKEREFVAAISGGGGNTYYADSVKGRFTISRDNAKNTVNLQMNSLKPEDTAVYYCAAQHVPRWWWYAPVKYDYWGQGTQVTVSS | low polyreactivity
16 | QVQLVESGGGLVQAGGSLRLSCAASGSTFGKYAMGWYRPAPGKERELVAGITYSGGSTYYADSVKGRFTISRDNAKNTVYLQMNSLKPEDTAVYYCAADGSYYTDFVASKYDYWGQGTQVTVSS | low polyreactivity
17 | QVQLVESGGGLVQAGGSLRLSCAASGSIFAYNAMGWYRQAPGKERELVATINWIGGRTYYADSVKGRFTISRDNAKNTVYLQMNSLKPEDTAVYYCAKERWYLGVSNGHVLVDYDHWGQGTQVTVSS | low polyreactivity
